Results taken from paper doi:10.1101/2021.03.15.435411.
Values joined by “and” are separate entries in the source; they are usually repeats but may differ in a detail not shown here. Equal entries are not always repeated. Where two headings read alike, the source gives them in different places.

Tests used:
[1] = molecular target: Native bovine (β, γ)-actin (bovine) (UniProt P60712); assay: single-filament TIRF microscopy
[2] = molecular target: Native bovine (β, γ)-actin (bovine) (UniProt P60712); assay: single-molecule / single-filament TIRF microscopy
[3] = molecular target: Native bovine (β, γ)-actin (bovine) (UniProt P60712); assay: TIRF microscopy, KD calculated from rate constants
[4] = molecular target: WAVE1ΔN, minimal Arp2/3-activating fragment of human WAVE1 (PVCA) (human); assay: FRET or BRET
[5] = molecular target: WAVE1ΔN, minimal Arp2/3-activating fragment of human WAVE1 (PVCA) (human); assay: FRET or BRET; remark: listed apart in the source

| fold change of koff against wild-type CP [1] [fold] | fold change of kon against wild-type CP [2] [fold] | fold reduction of affinity against wild-type CP [3] [fold] | Substance | percent quenching of NPF donor fluorescence [4] | percent quenching of NPF donor fluorescence [5] [%] |
| --- | --- | --- | --- | --- | --- |
| 3 | 3 | 10 | Capping protein lacking the last 23 amino acids of the β subunit (CPαβΔ23) (from UniProt P47753;P47757-2) (complex) |  |  |
|  |  |  | Atto540Q-quencher labeled Acanthamoeba castellani actin monomers (natural protein) | 59% and 69% | 14 |
